# Reference: the DeepSol protein solubility set
# Test: soluble on expression in E. coli; label from the status in PepcDB or PDB records
row,Sequence,soluble on expression in E. coli
1,MSLELSLADRPAIVTGASRGIGREIAARFAEAGGDVVVCSRTYEDVEAVATELTQTHDGRVVPVECDVTDREAVRDLVDTTIQEFGDIRVLVNNAGGADESANLLHRCDEETFESMVDLNLKSQFLLSKEVLPAMVAAGGGSIIHMGSVNGLFGIGLSGYSEAKSGLLALSRNIAAHYGQHGVRSNVISAATIETANRRAEMENTEERTGETSARERWLDQYPLGRFGTPREVADTTLFLASEMSSFLTGENLVLDGGLTTSLPTSFINEVYDADEKPTPNEGHHHHHH,soluble
2,MNRILIVEDEKNLARFIELELQHENYETAVANDGRAGLELALNEEWDAILLDLMLPHLNGVEVCRRVRQVKQTPIIMITARDSVIDRVSGLDHGADDYIVKPFAIEELLARLRSLLRRVENAEQSAKQTTLQYRNLIVEKENRIVKRDEEIIDLTKREYELLLTLMENVNIVLTREVLLNKVWGYETEVETNVVDVYVRYLRNKIDHPDEESYIQTVRGTGYVMRT,not soluble
3,MHCNDGGPATLGLFSDSDLQQPARVEVLGPQSRVLRGFALPWVEALLPQLDAVLAAAPFRQMQTPGGFTMSVGLSSCGQLGWTTDRSGYRYSPIDPQSQRPWPALPKVFQELAEAAAEAAGFPGFAPDSCLINCYRPGAKMSLHQDKNERDYSAPIVSLSLGLPAIFLFGGRQRSDKSQRVALLHGDVVVWGGVDRLRYHGVLALKDGHHPLLGQQRINLTLRRAGLEHHHHHH,not soluble
4,MSLKTFTLPASVLFCFLLLIQGLGAAPPGRPDVFPPPLSSEHNGQVAEDAVSRPKDDGVPEVRAARNPEPQDQGELFQGVDPRALASVLLQALDRPASPPSVPGGSQQGTPEEAAEALMTESVRSQTHSLPAPEIQAPAVAPPRPQTQDRDPEEDDRSEEMEALASLLQELRDFSPSNAKRQQETAAAETETRTHTLTRVNLESPGPERVWRASWGEFQARVPERAPLPPPVPSQFQARMSESAPLPETHQFGEGVSSPKTHLGETLTPLSKAYQSLGGPFPKVRRLEGSFLGGSEAGERLLQQGLAQVEAGRRQAEATRQAAAQEERLADLASDLLLQYLLQGGARQRDLGGRELQETQQERENEREEEAEQERRGGGEDDVGEEDEEAAEAEAEAEEAERARQNALLFAEEEDGEAGAEDKRSQEEAPGHRRKDAEGAEEGGEEDDDDEEMDPQTIDSLIELSTKLHLPADDVVSIIEEVEEKRKRKKNAPPEPVPPPRAAPAPTHVRSPQPPPPAPARDELPDWNEVLPPWDREEDEVFPPGPYHPFPNYIRPRTLQPPASSRRRHFHHALPPARHHPDLEAQARRAQEEADAEERRLQEQEEMENYIEHVLLHRPEGHHHHHH,soluble
5,MARKKQFDYFGELNQLATNAYEAAKVLQEIVDNYSLENLVKKSEAIHQLEKENDEIVRKILNELYISFITPIDREDIVDITDHLDNIIDSINSLSYLLDHLVVEEMIAPALELTAYIVKATEGVKSATKEFAKFKNSKTLVSLIDEVNTIESQGDKLYSSAMKDLMTNEKDLLKVIKWKDVYDQLERTINDCESAVNIIVGIVIKNTLEHHHHHH,soluble
6,MATEIDINRIQKDIFIEHKGEPYRVLDYEHVKPGKGQAFVRVKAKNMLTGNVTELTFKASDRIPLADFEQVYATYSYNDGENYYFMNTQTYDMIAVPKEKIEEEAKFLKEGMEVIVFLYKGQPIGIELPKHVELQVVETEPAFKGDTQAGGTKPAKLETGAVIQVPFFVKEGDIVKVDTRTGSYVERVKEAK,soluble
7,MVKANVQAIDQLDAEQLGSGMVITDRQLSIVAVSEPTPRWLGFAKNELVGRPVGVLFSAEWSAALLDGIAEAVKKDGCWQGEARHVAKSGKAYTSWMNVYRLSGSEGEWLVWHFVEQTAMPPADRPTTSELLGVIYDSAPFAVVPVAADGTVQDWGLSAERLFGRRKEEAVGRPIWSLFRCGSQTWLPFPPKEQRCGEGMVQRRDGTSANVSYTVIPMLQADGYIVLVEDETKQKQKEAERRRQVELAKKIQQNLLTPLIQNEAVTMDAVYIPSDDLSGDIYACYQIDLYRYGVIVIDVMGHGISSALVSMLLRSLLRGLIVRVIDPVSVASELEKHVQTLFPDEANDIRHLFSMIYLVIDTKERKIEYTNAGHPAGLLVFDDGSVHELDKGGLAIGSPFSLPFEKGVIHYDKRARLLLYTDGILEEIDPSILQSIEKIRSCTQMCRHLPDKRFLERLISQGPPLVSPSDDICLLSITVHG,not soluble
8,MTSTRHHRGARRALRHLTTTTAHARRAFSPADLRQLEAAVREGERRHRGEVRIVIEASLPVRDAWAGVTPRQRARTLFGLLEVWNTHEHVGVLLYLNLADHAVEILADRGIAARVEPHAWRAICETITHGFAQGVAIGPVLEALGQIHAVLAAHFPSDGAPRANELADKPLVLLEHHHHHH,soluble
9,MLEKGGIRVIDEKTLEIIVREVLTNLTSDKGTQNQQKTASSSLPKLDPKRDYPLAKNKPELAKSITGKTINEITLQAVREGKVLPDDLKISPETLLAQAEIAEAAGRKQLANNFRRAAELTKVPDKRILEIYNALRPYRSTKEELLAIADELDNAYGAKVCAAFVREAAEVYERRGRLKGME,not soluble
10,MHHHHHHSSGVDLGTENLYFQSMKICSIALVGKYTKLRDCYASVFKALEHSALAINHKLNLMYIDSIDLEKITETEDPVKFHEAWQKLCKADGILVPGGFGIRGTLGKLQAISWARTKKIPFLGVCLGMQLAVIEFARNCLNLKDADSTEFRPNAPVPLVIDMPEHNPGNLGGTMRLGIRRTVFKTENSILRKLYGDVPFIEERHRHRFEVNPNLIKQFEQNDLSFVGQDVDGDRMEIIELANHPYFVGVQFHPEFSSRPMKPSPPYLGLLLAATGNLNAYLQQGCKLS,soluble
11,GRPVITTSIVQDQGIDELEAAIASLFFESGIESGDVTYVSNSRHIALLEQAKRAVEDALEAIEMDVPIDMVQIDITRAWELLGEIIGDSVHESLIDQLFSQFCLG,soluble
12,SLPHCETLLLEPIEGVLRITLNRPQSRNAMSLAMVGELRAVLAAVRDDRSVRALVLRGADGHFCAGGDIKDMAGARAAGAEAYRTLNRAFGSLLEEAQAAPQLLVALVEGAVLGGGFGLACVSDVAIAAADAQFGLPETSLGILPAQIAPFVVRRIGLTQARRLALTAARFDGREALRLGLVHFCEADADALEQRLEETLEQLRRCAPNANAATKALLLASESGELGALLDDAARQFAEAVGGAEGS,not soluble
13,MGSDKIHHHHHHMSIDFYNQNASSFYASTVEVDSSSLLEQFTPYLPKGGSVLDAGCGSGRDSKRLIELGFHVDAFDASAALATLAQQLLGKPVRVATFMQFTSTLQYDGIWACASLLHVSKASLPDAFAHLASMLKSGGAFYCSFKYGQGEVERDGRSFTHCDEALLAELLTGSPLVIDKVWLTTDLRVGRENEQWLNAVLLKR,not soluble
14,MFDIPGLSTGDFHGFPSLLIQTPFSHAAISLFGGQLLSFVPSGGEEVIWLSPLVQPPPTAIRGGIPICWPYFGRQGQRDTMPAHGFVRTVPWQQVESCQENDGSLFLVLAPPPLKHLGLHLRMTLRIGRTLEQELATENISHAPISFTQALHNYFRVSNALQVTVQGLDGVEYLDKFEGYTQRHRQQGHWTLQDPRDPGRADRIYVDTSGHYVLVDPLFSRRIVLTTEGSHSLVVWNPGHAGASNMIDVADGWRDYLCLEPANAGPDEIELLPGARHVLRQSIAIAPL,soluble
15,TIEIYKNKIPDGKNAGKDAILIKDNNLIKQLEDAAKKNGAESNQKQGGESNVQKEQIIGYTTTGNVREDGNHIFRVDKINDEQYDRKIIVGVTVETLEQSSTLQSEEAIVLAAPGKYKSTDKKKVTITQGPNIIGIHANEKENAETQKFVDW,soluble
16,MGSDKIHHHHHHMKTLKGPGIFLAQYIGDQAPFNTLENLAQWAAGLGFKALQIPCNHPHIFNLATAADSQTYCDEVKGLLAQHGLTISELSTHLEGQLVAVHPAYDDAFDDFAPPAYRRNPQARQQWAISAIKQAAKASSRLGLNAHATFSGALAWPYFYPWPPRKEALIQEAFKELGRLWTPILDCFDEHGVDVCYELHPGEDLHDGVTFERFLDVVNHHPRANILYDPSHMHLQQMDYLGFIDRYHARIKAFHVKDAEFTPSSKSGVYGGYQSWAERAGRFRSPGDGQIDFGAIFSKLAQYDYDGWAVLEWECCLKDSNCGAKEGAAFIDRHIIPVAQRAFDDFAATSDDRPLVRKMLGLKEEDAE,not soluble
17,MSLAILIVECMQEISSFNPVPSDYELFHIEEGEDLFQHRGRNTAIGGALSVLEATPGVTLIPTVAARADSAGILSAEGWARLSAQILDRVRAGVGGADAIYVSLHGAMGAVGEPDPEGWLLAQIRALAGPDRPIIISLDLHGILTERMIAQVDGIAVYHTYPHVDFADTGARAARLLLDRLTARRPASIVRAVIPALVRGDELITATGCYGDLIRECRRLEADGMVLAAGLMIGNPFTDAPELCSQVVLTTDDPLRGRAEAERLAAAFWALRHRMQGRLIGLSDAVAEARTLTGPVVFTDAADATSSGASGDSNAILRGLLAADYPGRVLAQIVDPQAAEAAHRAGVGAEIPVTLGGRMDPARFTPLEVTARVRLLSDGLTRLETMKTPLNAGRCAVLEFGTVTVVAMSLPAMLFDRAIYYANGLDPADFDLIVVKSPHTEHHMYDAWVTRNFNIDTPGSTSADLASLGHRICARPMFPLDPLTDFTPRATAHLRADRSEGHHHHHH,soluble
18,MTAVPLPILHLPHNALQMSLKQMSTVEHLALSFVSNKTRRLIKMLKEKNHITCISMGSPISIDFLSLTFDYKSNQKIVKIDNPEQNGSLSRLNLPGFTEKQWIEHFANVFIQNKKVMLISDLGERKIEDIYESIKDLNIVTLDIMTSEFQDCKLFKLFPTLEELGVSETPLSAPIFVQNFQSLTAIDVTLDDILSSNCTNLCLDDQLISDKDLNIFMRNWIKGSNPRLRKLTNTSVRHERDISDSVFFRGISQIKTRDWCDEDTFDKEFEIKNEDGVRAKVTLSTFSFIFCIEDF,not soluble
19,MDLTNGGVSPAATSAPLDWTTFRRVFLIDDAWRPLMEPELANPLTAHLLAEYNRRCQTEEVLPPREDVFSWTRYCTPDEVRVVIIGQNPYHHPGQAHGLAFSVRANVPPPPSLRNVLAAVKNCYPEARMSGHGCLEKWARDGVLLLNTTLTVKRGAAASHSRIGWDRFVGGVIRRLAARRPGLVFMLWGTHAQNAIRPDPRVHCVLKFSNPSPLSKVPFGTCQHFLVANRYLETRSISPIDWSV,soluble
20,MGSDKIHHHHHHMLKIELLESFIAVAECGNLSKAADKICRTQSTLSLQVKKLEESVGQTLLIRDNKGVTLTESGETLLNYAYKMMQLNSQAIDELKDCQNREVIRLGVPTDFIKCYLSSCLLEFIREFTSIELVIDTDVSGNLYKRLHQGEFDVIVATHWQVPTNGELLFTRRFKWVSAVEGNAHKRKTIPMGLYPENCPIRAQVFANHRLSMRPINVLLSTPSPQALCMAVENDLVIAPIAEFRITDQMQVLDPIEHGLPILPMFNESLYLNPDTQTYATLQLINLIKANVEHKGYQLD,not soluble
21,TRGHGLFRITLVERDGPVGAGIAYATREAEHLLNTRVHNMSAFPDRPDHFRQWLAAEPEGRFSTGDSFVPRGLYRRYLEEILAPWRAGAQLTCVGGECLRIEEVGRGVIAHFSDGSVRLADVAILATGHPRPDPAEDRLLQDPWRAADVPPDARVVLLGSGLTMIDKVLTLLANGHRGEI,not soluble
22,MSLSEKMRRIVEAAGGIVWRWKAGSDIANDPAIASSKSAQEQLDSIEVCIVHRPKYDDWSWPKGKLEQNETHRHAAVREIGEETGSPVKLGPYLCEVEYPLSEEGKKTRHSHDCTADTKHTLYWMAQPISADDAEHLLDAFGPVHRADVGEINDIVWVSVREARKILSHSTDKDTLAVFVDRVQEGAATAQNLLIVRHAKAESRKSWKGTDANRPITPKGAAMAFALNRELACFNPTRLATSPWLRCQETLQVLSWQTERPMEHINTLTEDAFAEHPAVSWLAFREQITQTLNSRETTAICMHRPVIGGMYDHLRGLCARKQLAKQLIAKSPYMPTGTAMSLFIIDTPQGPSIIDIQKVSPIVYEGHHHHHH,soluble
